From patent US11421026B2, “Antibodies that bind human cannabinoid 1 (CB1) receptor” (BIRD ROCK BIO, Inc., priority 2015, dated 2022) come the findings set out here.

Experiment [1] addresses A139 iCAPS (human CB1, ICL3 replaced with BRIL). The experiment is described as follows: ELISA binding of IgG/Fab to CB1 iCAPS A139. The note with it: IgG and Fab ELISA, Table 8. As for the experimental part:
Purified IgG was tested for binding to purified CB1 receptor (CB1 Conformation Antigen Presenting System (iCAPS)) by ELISA. Non-biotinylated antigens (e.g. empty iCAPS) were coated directly on Maxisorp plates. The primary antibodies were purified IgGs with 1:3 serial dilutions, incubated on the plate for 1 hour. After 3 rounds of washing with PBST, secondary antibodies HRP goat anti-mouse IgG (Abmart) or HRP goat anti-human IgG (Sigma), depending on the species of the IgGs were added and incubated for another hour. The plates were washed three times with PBST, then developed with TMB (Biopanda). HCl was added to the plates to stop the reaction. Absorbance at 450 nm was read on Emax precision microplate reader (Molecular Devices).
IgG and Fab molecules tested were 36E12B6C2 IgG, 36E12B6C2 Fab, PA13R3-P1C4 IgG, and PA13R3-P1C4 Fab, compared to negative control BRIL binder P1F7 IgG and P1F7 Fab. For IgG antibodies, the secondary antibody used to detect binding was anti-mouse IgG-HRP; for Fabs, the secondary antibody used to detect binding was anti-human IgG-HRP.

The target in experiment [2] is T1, Mouse CB1 (TRex CHO cells) (Mus musculus, UniProt P47746).
T1 construct: expressed in transfected cells
T1 sequence (P47746 whole entry): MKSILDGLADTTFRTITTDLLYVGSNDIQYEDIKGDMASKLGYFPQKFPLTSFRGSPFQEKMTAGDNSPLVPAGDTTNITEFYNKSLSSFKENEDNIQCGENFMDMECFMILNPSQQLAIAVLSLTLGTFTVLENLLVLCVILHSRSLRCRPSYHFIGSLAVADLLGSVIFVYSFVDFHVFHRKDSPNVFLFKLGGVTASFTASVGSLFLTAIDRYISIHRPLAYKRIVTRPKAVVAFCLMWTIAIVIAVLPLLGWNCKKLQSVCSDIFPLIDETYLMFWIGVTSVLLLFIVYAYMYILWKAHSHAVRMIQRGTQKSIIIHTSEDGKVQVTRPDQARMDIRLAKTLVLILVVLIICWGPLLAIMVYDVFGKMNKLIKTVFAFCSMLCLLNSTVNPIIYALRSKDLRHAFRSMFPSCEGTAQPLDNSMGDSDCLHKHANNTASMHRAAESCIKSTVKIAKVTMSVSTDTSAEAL
The experiment is described as follows: Flow cytometry cross-reactivity to mouse CB1. The class given is binding. The method, then:
(§1) To further assess TRex CHO parental cells, TRex CHO A56 overexpressed CB1, Native human CB1 TRex CHO A156, 5HT2B, Mouse CB1 and human CB2 were used to examine the specificity of IgG binding. 100 μl of 1×10^6 cells/ml of cells were incubated with primary antibody IgGs in 3-fold serial dilutions starting from 1 μM to 0.5 nM for 30 minutes on ice. After being washed with 200 μl of FACS buffer twice, cells were incubated with secondary antibody for 30 minutes on ice. Cells were washed with 200 μl of FACS buffer twice and transferred to BD Falcon 5 ml tube and analyzed by FACS.
(§2) Santa Cruz anti-CB1 rabbit polyclonal antibody and secondary antibody FITC conjugated anti-rabbit were used to detect the expression of mouse CB1. R&D mouse monoclonal anti-CB2 and human IgG P2C2 were used to confirm the expression of CB2 and 5HT2B respectively. Both anti-mouse and anti-human secondary antibodies were PE-conjugated.
(§3) The binding affinity, cross-reactivity and specificity of humanized P1C4 antibodies were determined by flow cytometry with TRex CHO parental cells, TRex CHO A56 overexpressed CB1 cells (T210A/fusion partner), native human CB1 TRex CHO A156 cells, Trex parental (no CB1) cells, mouse CB1 cells, and human CB2 stable cells. […] After being washed with 200 μl of FACS buffer twice, cells were incubated with PE conjugated anti-human secondary antibody (Southern Biotech) for 30 minutes on ice. Cells were washed with 200 μl of FACS buffer twice and transferred to BD Falcon 5 ml tube and analyzed by flow cytometry (BD FACScalibur).
Binding selectivity and cross-reactivity of PA13R3-P1C4 and its humanized variants was also characterized by flow cytometry using TRex CHO cells stably transfected with the GPCRs of interest. Specifically, binding selectivity for CB1 over CB2 was determined. Cross reactivity to mouse CB1 was also determined. For detecting expression of mouse CB1, 100 μL of 1×10^6 cells/mL of cells were incubated with anti-CB1 rabbit polyclonal antibody (Santa Cruz) at 1 μg/100 μL on ice for 30 min. Mouse monoclonal anti-CB2 antibody from R&D Systems was used to confirm the expression of CB2. 100 μL of 1×10^6 cells/mL of cells were incubated with anti-CB2 antibody at 0.5 μg/100 μL on ice for 30 minutes. After incubation, cells were then centrifuged at 4° C. at 1600 rpm for 3 minutes; supernatant was aspirated and cells were washed with 200 μL FACS buffer. The procedure was repeated twice. […] Cells were washed with 200 μL FACS buffer twice and analyzed by flow cytometry (Guava). Binding of purified IgG full concentration curves ranging from 1 μM to 1.3 nM was determined. […]

The target in experiment [3] is T2, human CB2 (TRex CHO cells) (Homo sapiens, UniProt P34972).
T2 construct: expressed in transfected cells
T2 sequence (P34972 whole entry): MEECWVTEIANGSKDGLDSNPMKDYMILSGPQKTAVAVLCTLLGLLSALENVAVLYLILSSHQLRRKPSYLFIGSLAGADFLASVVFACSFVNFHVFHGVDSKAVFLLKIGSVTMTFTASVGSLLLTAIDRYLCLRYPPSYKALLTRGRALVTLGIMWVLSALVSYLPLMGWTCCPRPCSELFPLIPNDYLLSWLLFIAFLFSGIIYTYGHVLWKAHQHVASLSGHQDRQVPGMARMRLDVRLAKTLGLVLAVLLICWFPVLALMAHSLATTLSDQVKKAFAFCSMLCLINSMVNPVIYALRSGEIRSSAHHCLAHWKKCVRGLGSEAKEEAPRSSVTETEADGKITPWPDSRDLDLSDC
The experiment is described as follows: Flow cytometry selectivity versus human CB2. The class given is binding. As for the experimental part: as §1, §2
(§4) For selected binders, full binding curves were generated on CB1 receptor by testing a range of concentrations. Three-fold serial dilutions from 1 μM to […] were prepared. Selectivity was determined by measuring binding to cells expressing 5HT2B or CB2, relative to binding to A156 (native human CB1 receptor expressing) or A56 (overexpressed—CB1 receptor with the T210A modification and ICL3 replacement with fusion partner) by flow cytometry. As shown in FIG. 2C and FIG. 2D, the expression of CB2 and 5HT2B was confirmed using mouse monoclonal anti-CB2 and P2C2 human IgG to confirm CB2 and 5HT2B expression, respectively. PE-conjugated anti-mouse (for detection of anti-CB2) and PE conjugated anti-human antibodies were used to detect CB2 and 5HT2B, respectively.
as §3
Binding selectivity and cross-reactivity of PA13R3-P1C4 and its humanized variants was also characterized by flow cytometry using TRex CHO cells stably transfected with the GPCRs of interest. Specifically, binding selectivity for CB1 over CB2 was determined. Cross reactivity to mouse CB1 was also determined. […] Cells were washed with 200 μL FACS buffer twice and analyzed by flow cytometry (Guava). Binding of purified IgG full concentration curves ranging from 1 μM to 1.3 nM was determined. […]

In a further experiment the target is T3, 5HT2B expressing cells (Homo sapiens, UniProt P41595).
T3 construct: expressed in transfected cells
T3 sequence (P41595 whole entry): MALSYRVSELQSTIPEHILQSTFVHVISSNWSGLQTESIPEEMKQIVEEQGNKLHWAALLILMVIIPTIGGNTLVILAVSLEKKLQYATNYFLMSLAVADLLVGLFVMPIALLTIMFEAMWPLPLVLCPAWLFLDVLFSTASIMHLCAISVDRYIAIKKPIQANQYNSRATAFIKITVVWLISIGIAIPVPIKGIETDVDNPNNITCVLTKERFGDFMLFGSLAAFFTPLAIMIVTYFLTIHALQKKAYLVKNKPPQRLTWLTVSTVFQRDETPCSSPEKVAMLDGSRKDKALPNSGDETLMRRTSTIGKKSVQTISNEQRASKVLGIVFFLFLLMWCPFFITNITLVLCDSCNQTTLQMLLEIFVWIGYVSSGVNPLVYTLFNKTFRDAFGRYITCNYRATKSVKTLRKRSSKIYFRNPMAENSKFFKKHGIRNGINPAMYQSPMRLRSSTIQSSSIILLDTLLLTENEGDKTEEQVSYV
The experiment is described as follows: Flow cytometry selectivity versus 5HT2B. The class given is binding. The method, then:
as §1, §2, §4

The target in experiment [4] is T4, TRex CHO A156 Native human CB1 cells (Homo sapiens, UniProt P21554).
T4 construct: pcDNA4/TO native full length human CB1 receptor construct was transfected into tetracycline inducible system Trex-CHO cells; expressed in transfected cells
T4 sequence (P21554 whole entry): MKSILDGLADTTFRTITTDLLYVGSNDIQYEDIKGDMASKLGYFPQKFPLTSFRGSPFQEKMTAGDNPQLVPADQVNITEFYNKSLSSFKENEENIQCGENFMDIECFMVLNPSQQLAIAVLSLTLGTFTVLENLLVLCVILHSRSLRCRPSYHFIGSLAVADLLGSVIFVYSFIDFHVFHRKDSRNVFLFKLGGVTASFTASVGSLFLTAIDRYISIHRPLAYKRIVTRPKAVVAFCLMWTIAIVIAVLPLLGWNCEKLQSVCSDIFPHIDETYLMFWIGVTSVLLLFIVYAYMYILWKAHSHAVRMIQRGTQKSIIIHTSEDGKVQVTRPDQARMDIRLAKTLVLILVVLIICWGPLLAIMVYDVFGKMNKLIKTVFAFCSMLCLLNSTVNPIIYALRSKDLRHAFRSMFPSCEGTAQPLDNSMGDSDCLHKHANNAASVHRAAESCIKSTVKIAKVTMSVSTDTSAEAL
The experiment is described as follows: Competition assay by FACS. The class given is binding. The note with it: excess competitor; staining IgG at EC80 and EC50. As for the experimental part:
TRex CHO A156 Native human CB1 cells were used to test whether 36E12B6C2 and P1C4 bind to similar epitopes. Concentrations at EC80 and EC50 of P1C4 and 36E12B6C2 were used for staining. Excess of PA13R3-P1C4 IgG, Fab and 36E12B6C2 were used for competition. 100 μl of 1×10^6 cells/ml of A156 cells were incubated with competitor IgGs for 30 minutes on ice and then staining IgGs were added into the mixture with 30 minutes incubation on ice. After being washed with 200 μl of FACS buffer twice, cells were incubated with secondary antibody for 30 minutes on ice. PE conjugated anti-human and anti-mouse was diluted in 1:200 folds. Cells were washed with 200 μl of FACS buffer twice and transferred to BD Falcon 5 ml tube and analyzed by FACS.

B1: 36E12B6C2: hybridoma-derived anti-CB1 mAb; HC variable SEQ ID NO: 18, LC variable SEQ ID NO: 22 (antibody, listed as Mus sp., V domains shown)
VH: QVQLQQSGAELVRPGSSVKISCKASGYEFSYYWMNWVKQRPGQGLQWIGQIYPGDGDTNYNGKFKGKATLTADKSSSTAYMHLTSLTSEDSAVYFCARSGGNPFAFWGQGTLVTVSA
VL: DIQMTQTSSSLSASLGDRVTFSCRASQDISNYLNWYQQKPDGTVKLLIYYTSRLHSGVTSRFRGSGSGTDYSLTISNLEQEDVATYFCQQGHTLPWSFGGGTKLEIK
Turning to B1, the EC50 in experiment [1] was found to be 0.19 nM. In experiment [2], the “cross-activity with Mouse CB1” value is “do not have cross-activity”. In addition, the “cross-activity with human CB2” value in experiment [3] is “do not have cross-activity”. Further, the “cross-activity with 5ht2b” value with 5HT2B expressing cells was “do not have cross-activity”. Further, the “competition for CB1 binding” value in experiment [4] is on record as “could also compete with PA13R3-P1C4”.

B2: PA13R3-P1C4: phage-derived chimeric anti-CB1 IgG; HC variable SEQ ID NO: 2, LC variable SEQ ID NO: 6 (antibody, V domains shown)
VH: EVQLQQSGAELVRPGVSVKISCKASGYEFSYYWMNWVKQRPGQGLEWIGQIYPGDGETKYNGKFKGKATLTADKSSNTAYMQLSSLTSEDSAVYFCARSHGNYLPYWGQGTLVTVSA
VL: DIVLTQSPAIMSASLGERVTMTCTASSSVSSSYLHWYQQKPGSSPKLWIYSTSNLASGVPARFSGSGSGTSYSLTISSMEAEDAATYYCHQYHRSPPTFGAGTKLELK
modifications: PA13R3-P1C4 Heavy chain variable region; PA13R3-P1C4 Light chain variable region
B2 displayed an EC50 in experiment [1] of 0.17 nM. For the same molecule, in experiment [2], the “cross-activity with Mouse CB1” value was “do not have cross-activity”. Further, the “Kd TRexCHO Mouse CB1” value in experiment [2] (Table 10) is given as “No binding”. Moreover, the “cross-activity with human CB2” value in experiment [3] was “do not have cross-activity”. Also, the “Kd TRexCHO Human CB2” value in experiment [3] (Table 10) is given as “No binding”. Further, in the experiment with 5HT2B expressing cells, the “cross-activity with 5ht2b” value is reported as “do not have cross-activity”. The “competition for CB1 binding” value in experiment [4] is recorded as “competed with 36E12B6C2”.

B3: PA13R3-P1C4 Fab: Fab fragment of chimeric PA13R3-P1C4 (antibody, V domains shown)
VH: B2 VH
VL: B2 VL
As for B3, it took 0.27 nM to reach a half-maximal effect in experiment [1] (EC50). In addition, in experiment [2], the “cross-activity with Mouse CB1” value is reported as “do not have cross-activity”. Besides, the “cross-activity with human CB2” value in experiment [3] is listed as “do not have cross-activity”. For the same molecule, the “cross-activity with 5ht2b” value with 5HT2B expressing cells is reported as “do not have cross-activity”. For the same molecule, the “competition for CB1 binding” value in experiment [4] is recorded as “competed with 36E12B6C2”.
